Assay results: patent US12365732 (23ANDME, dated 2025)
Changes are numbered by the printed parent chain. In names and notes the source's numbering stands.

T1: hu-CD96 isoform 1 on HEK293T cells (human, UniProt P40200 22-585)
T1 construct: Origene RC213845, transient expression; also called HEK293T-CD96 (iso1)
T1 sequence: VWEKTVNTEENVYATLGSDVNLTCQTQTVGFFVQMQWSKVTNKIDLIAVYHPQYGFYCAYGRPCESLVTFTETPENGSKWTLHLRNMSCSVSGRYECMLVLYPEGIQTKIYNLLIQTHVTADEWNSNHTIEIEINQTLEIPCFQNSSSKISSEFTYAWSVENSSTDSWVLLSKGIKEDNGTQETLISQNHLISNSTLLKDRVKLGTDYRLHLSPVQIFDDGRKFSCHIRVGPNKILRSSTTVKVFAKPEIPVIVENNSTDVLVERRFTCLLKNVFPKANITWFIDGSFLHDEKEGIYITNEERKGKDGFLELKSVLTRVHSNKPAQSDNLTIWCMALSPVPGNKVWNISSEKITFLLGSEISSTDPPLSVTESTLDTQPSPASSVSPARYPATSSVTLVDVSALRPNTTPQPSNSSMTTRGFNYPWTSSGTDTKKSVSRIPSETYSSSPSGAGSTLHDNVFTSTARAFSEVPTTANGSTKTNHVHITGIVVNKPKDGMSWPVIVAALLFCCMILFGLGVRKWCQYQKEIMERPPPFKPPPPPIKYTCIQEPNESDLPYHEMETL

T2: cynomolgus monkey CD96 on cynomolgus monkey PBMCs (cynomolgus monkey, UniProt A0A2K5TWV6 22-569)
T2 construct: whole, on cells
T2 sequence: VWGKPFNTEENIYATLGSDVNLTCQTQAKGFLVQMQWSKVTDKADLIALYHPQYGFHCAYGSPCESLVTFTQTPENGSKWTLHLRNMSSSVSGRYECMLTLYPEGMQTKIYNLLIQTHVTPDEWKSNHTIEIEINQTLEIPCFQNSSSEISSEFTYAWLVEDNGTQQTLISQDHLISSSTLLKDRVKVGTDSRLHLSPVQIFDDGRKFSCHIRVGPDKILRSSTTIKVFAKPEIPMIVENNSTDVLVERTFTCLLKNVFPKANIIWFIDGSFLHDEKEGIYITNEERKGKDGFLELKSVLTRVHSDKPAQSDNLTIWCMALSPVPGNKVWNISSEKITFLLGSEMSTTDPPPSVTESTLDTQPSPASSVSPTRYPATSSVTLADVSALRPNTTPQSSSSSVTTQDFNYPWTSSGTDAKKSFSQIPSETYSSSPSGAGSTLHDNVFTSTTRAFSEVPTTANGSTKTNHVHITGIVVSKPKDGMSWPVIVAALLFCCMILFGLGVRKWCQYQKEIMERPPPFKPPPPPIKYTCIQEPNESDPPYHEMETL

B1: mAb1.v7 IgG (humanized 12F8) (antibody, V domains shown)
VH: EVQLVQSGAEVKKPGASVKVSCKASGFTFTNNWMHWVRQAPGQGLEWIGMIHPNSGITNINEKFKNRVTMTTDTSTSTAYMELRSLRSEDTAVYYCRSDGTYEGYFDYWGQGTLVTVSS
VL: DIQLTQSPSSLSASVGDRVTITCKASQNVGTAIVWYQQKPGKAPKVLIYSASTRYTGVPSRFSGSGSGTDFTLTISSLQPEDFATYYCQQYSSSPLTFGQGTKVEIKG
notes: human IgG1 N297G
B2: 10G1 (clone 10G1.3G8), purified hybridoma antibody (antibody, V domains shown)
VH: QIQLVQSGPELKKPGETVKISCKASGYPFTTYGMSWVKQAPGKGLKWMGWINTDSGVPTYADDFKGRFAFSLETSANTAYLQINSLKNEDAATYFCARNIYYGWGNFDYWGQGTILTVSS
VL: DILMTQSPTTLSVTPGETVSLSCRASQDIYRNLHWYQQKSQGTPRLLIKHASDSISGIPSRFTGSGSGTDFTLSINSVKPEDEGIYYCLQGYSMPYTFGGGTKLEIK
notes: murine hybridoma IgG
B3: 7E5, purified hybridoma antibody (antibody, V domains shown)
VH: QVQLKESGPGLVAPSQSLSIICTVSGFSLTNYGIHWIRQPPGKGLEWLGIIWAGGSTNYNSALMSRLTISKDNSKSQVFLKMNSLQTNDTAIYYCARVSMMGFAYWGQGTLVTVSA
VL: QAVVTQESALTTSPGETVTLTCRSSTGAVTTSNYANWVQEKPDHLFTGLIGGTNNRAPGVPARFSGSLIGDKAALTITGAQTEDEAIYFCSLWYGSHWVFGGGTKLTVL
notes: murine hybridoma IgG
B4: 9H4, purified hybridoma antibody (antibody, V domains shown)
VH: EVQLLETGGGLVKSGGSLKLSCAASGFTFSDYYMYWVRQTPEKRLEWVAAISDDGTYTYYPDSVKGRFTISRDNANNYLYLQMSSLKSEDTAIYYCAKAGSYDYFDVWGAGTTVTVSS
VL: DIVLTQSPASLAVSLGQRAIISCKASQSVTFADTGLMHWYQQKPGQQPKLLIYRASNLEVGVPTRFSGSGSGTDFTLNIHPVEEEDVATYYCQQSREYPWTFGGGTKLEIK
notes: murine hybridoma IgG
B5: mAb1.v7.NGS11 IgG (antibody, V domains shown)
VH: B1 VH with W33F, M50F, P53A, T101V
VL: B1 VL
notes: human IgG1 N297G
B6: mAb1.v7.NGS10 IgG (antibody, V domains shown)
VH: B1 VH with W33F, M50F, P53A, T101I
VL: B1 VL
notes: human IgG1 N297G
B7: mAb1.v7.NGS9 IgG (antibody, V domains shown)
VH: B1 VH with W33F, P53A, T101V
VL: B1 VL
notes: human IgG1 N297G
B8: h10G1 IgG (humanized 10G1) (antibody, V domains shown)
VH: EIQLVQSGSELKKPGASVKVSCKASGYPFTTYGMSWVRQAPGQGLEWMGWINTDSGVPTYADDFKGRFVFSLDTSVSTAYLQISSLKAEDTAVYFCARNIYYGWGNFDYWGQGTLVTVSS
VL: EIVMTQSPDFQSVTPKEKVTITCRASQDIYRNLHWYQQKPDQTPKLLIKHASDSISGIPSRFSGSGSGTDFTLTINSLEAEDAAAYYCLQGYSMPYTFGGGTKVEIKG
notes: human IgG1 N297G

Biological target: T1, hu-CD96 isoform 1 on HEK293T cells
Assay: FACS, Ab 0.08 nM
Method: Isoform 1 of hu-CD96 (Origene, catalog #RC213845) was transiently expressed in HEK293T cells following standard lipofectamine or Fugene transfection protocol. […] Cells were washed, and binding was detected by incubation with anti-mouse IgG-FITC (Biolegend, catalog #406001) for 20 minutes at 4° C. Cell binding was analyzed by flow cytometry with a CytoFLEX (Beckman Coulter). Binding curves were calculated as a percentage of cells positive for bound antibody.

In order of falling “% positive” value:
1. B2  16.5%
2. B3  8.5%
3. B4  1.5%
4. B1  0.8%

Biological target: T2, cynomolgus monkey CD96 on cynomolgus …
Assay: FACS, Ab 0.00512 nM
Method: (§1) The ability of the anti-CD96 antibodies to bind primary immune cells from human and cynomolgus monkey with lower level of receptor expression was measured. Human PBMCs (StemCell Technologies, catalog #70025) and cynomolgus monkey PBMCs (Primate Biologicals, catalog #CM-MC) were incubated with human TruStain FcX (Biolegend, catalog #422302) for 10 minutes at 4° C., followed by incubation with an anti-CD96 antibody for 20 minutes at 4° C. Cells were washed and the anti-CD96 antibody binding was detected by incubation with anti-mouse IgG-PE (Thermo Fisher, catalog #M30204) or anti-human IgG (Fab) 2-PE (Thermo Fisher, catalog #H10104) for 20 minutes at 4° C. Cells were washed, and immune subtypes were labeled with anti-CD3 (BD, catalog #557705), anti-CD4 (Biolegend, catalog #317424) and anti-CD8 (BD, catalog #557760) for 20 minutes at 4° C. Cell binding was analyzed by flow cytometry with a CytoFLEX (Beckman Coulter). Binding curves were calculated as a percentage of cells positive for bound antibody in the cell type of interest.

In order of rising “% positive” value:
1. B7  7.1%
2. B8  7.4%
3. B6  9.5%
4. B5  10.4%

Biological target: T2, cynomolgus monkey CD96 on cynomolgus …
Assay: FACS, Ab 80 nM
Method: as §1

In order of rising “% positive” value:
1. B8  68.3%
2. B7  73.8%
3. B6  75.2%
4. B5  81.9%

Biological target: T3, cynomolgus monkey CD96D1 D3-hFc (cynomolgus monkey)
T3 construct: also called cy-CD96D1 D3
Assay: ELISA, coated CD96D1D3-hFc
Method: (§2) CD96 binding of purified hybridoma antibodies: The hu-CD96 and cy-CD96 antigen binding ELISA was performed on the purified hybridoma antibodies. Briefly, 96-well MAXISORP® flat bottom plates (Thermo Fisher Scientific, Waltham, MA; Cat #439454) were coated overnight at 4° C. with 0.5 µg/mL of hu-CD96D1 D3-hFc and cynomolgus monkey CD96D1 D3-hFc in PBS. After removing the coating solution, unspecific binding was blocked by PBS containing 1% bovine serum albumin (blocking buffer) and incubation at room temperature for one hour. Plates were then washed three times with PBS and 0.05% TWEEN®-20 (wash buffer). Serial dilution of purified antibodies in PBS containing 0.5% BSA and 0.05% Tween 20 (ELISA buffer) was added to individual wells followed by incubation at room temperature for one hour with agitation. Plates were washed three times with wash buffer, then 100 µL/well of anti-mouse IgG-HRP (Thermo Fisher Scientific, Waltham, MA; Cat #626520) in ELISA buffer was added. […] Enzymatic color development was stopped with 50 µL/well of TMB stop solution (VWR/Avantor, Radnor, PA, USA; Cat #95059-200). Plates were analyzed with a SpectraMax i3X plate reader (Molecular Devices LLC, San Jose, CA, USA) at 450 nm.

In order of falling EC50:
1. B3  0.53 nM
2. B2  0.2 nM

B4: no binding.

Biological target: hu-CD96D1 D3-hFc (human)
Assay: ELISA, coated CD96D1D3-hFc
Method: as §2

In order of falling EC50:
1. B4  0.24 nM
2. B3  0.06 nM
3. B2  0.03 nM
